The results in this text go back to paper PMC3426162 (Archaea, 2012).

Data set [1] has as its target T1, AMP-dependent ACS (Mthe_1194) (Methanothrix thermoacetophila, UniProt A0B8F1).
T1 construct: gene acsA; full-length gene in pASK-IBA5, N-terminal Strep-tag II, E. coli BL21 (DE3) pLysS; approximately 75 kDa on SDS gel
T1 sequence (A0B8F1 1-659): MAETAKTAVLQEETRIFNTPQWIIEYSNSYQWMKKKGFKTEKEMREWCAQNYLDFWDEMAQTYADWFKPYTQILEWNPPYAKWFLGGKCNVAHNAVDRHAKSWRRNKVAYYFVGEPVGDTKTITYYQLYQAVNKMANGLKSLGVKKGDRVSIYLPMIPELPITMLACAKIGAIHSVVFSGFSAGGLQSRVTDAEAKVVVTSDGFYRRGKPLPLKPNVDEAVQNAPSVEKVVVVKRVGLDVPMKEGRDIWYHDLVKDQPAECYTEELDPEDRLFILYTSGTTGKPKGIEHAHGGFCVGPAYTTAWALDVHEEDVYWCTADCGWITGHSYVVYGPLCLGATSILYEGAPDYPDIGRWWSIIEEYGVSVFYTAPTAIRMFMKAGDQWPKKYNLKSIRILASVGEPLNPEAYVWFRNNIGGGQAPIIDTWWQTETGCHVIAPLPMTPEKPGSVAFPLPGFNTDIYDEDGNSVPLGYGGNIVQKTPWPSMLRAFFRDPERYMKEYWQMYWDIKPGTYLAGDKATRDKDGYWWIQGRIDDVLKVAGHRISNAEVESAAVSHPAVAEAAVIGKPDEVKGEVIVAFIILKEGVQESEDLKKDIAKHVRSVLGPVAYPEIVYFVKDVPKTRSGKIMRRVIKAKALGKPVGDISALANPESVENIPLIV
The data set can be described thus: coupled assay via auxiliary enzymes (myokinase, pyruvate kinase, lactate dehydrogenase), NADH […] nm. It counts as biochemical. Conditions: read-out: 50% reduction of the reaction rate.

Data set [2] addresses T1, AMP-dependent ACS (Mthe_1194). Briefly: discontinuous pyrophosphate detection (molybdate / Eikonogen, […] nm). Conditions: co-substrates ATP and CoA; 55°C. The format is biochemical.
Substrate in data set [3]: CC(=O)O
The data set can be described thus: purified protein. Conditions: 50 mM HEPES pH 7.5, 5 mM MgCl2, 1 mM CoA, 2.5 mM ATP, 55°C.

Substrate in data set [4]: Nc1ncnc2c1ncn2[C@@H]1O[C@H](COP(=O)(O)OP(=O)(O)OP(=O)(O)O)[C@@H](O)[C@H]1O
Briefly: purified protein. The format is biochemical, Methanothrix thermoacetophila. The note with it: co-substrates acetate and CoA, 55°C.

Substrate in data set [5]: CC(C)(COP(=O)(O)OP(=O)(O)OC[C@H]1O[C@@H](n2cnc3c(N)ncnc32)[C@H](O)[C@@H]1OP(=O)(O)O)[C@@H](O)C(=O)NCCC(=O)NCCS
Briefly: purified protein. The format is biochemical, Methanothrix thermoacetophila. The note with it: co-substrates acetate and ATP, 55°C.

`O=P(O)(O)OP(=O)(O)O` [PPi]: the IC50 in data set [1] is about 250 µM. For the molecule `CCC(=O)O` [propionate], the “discontinuous pyrophosphate detection (molybdate / Eikonogen, 580 nm)” value in data set [2] is on record as “A reaction was also observed with propionate”.

B1: AMP-dependent ACS (Mthe_1194) (Methanothrix thermoacetophila PT) (protein)
chain: T1 sequence (A0B8F1 1-659)
notes: full-length gene in pASK-IBA5, N-terminal Strep-tag II, E. coli BL21 (DE3) pLysS; approximately 75 kDa on SDS gel
Turning to B1, the figures for the Michaelis constant (Km) in data set [3], in data set [4] and in data set [5] were 400 µM, 20 µM and 14.5 µM, respectively.
